Reference: paper PMC2756588

T1: Abp1, P15891
T1 sequence (P15891 535-592, looked up): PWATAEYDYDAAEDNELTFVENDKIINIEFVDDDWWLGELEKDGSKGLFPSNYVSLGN

T2: Bbc1, P47068
T2 sequence (P47068 1-78, looked up): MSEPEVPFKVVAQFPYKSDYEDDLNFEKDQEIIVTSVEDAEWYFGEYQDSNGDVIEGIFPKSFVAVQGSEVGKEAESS

T3: Boi1, P38041
T3 sequence (P38041 1-86, looked up): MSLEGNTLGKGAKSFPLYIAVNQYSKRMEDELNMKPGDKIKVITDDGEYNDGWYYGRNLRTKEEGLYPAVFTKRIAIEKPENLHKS

T4: Boi2, P39969
T4 sequence (P39969 32-116, looked up): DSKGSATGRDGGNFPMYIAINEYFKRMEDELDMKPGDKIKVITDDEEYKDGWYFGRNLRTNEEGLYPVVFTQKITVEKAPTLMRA

T5: Bud14, P27637
T5 sequence (P27637 247-328, looked up): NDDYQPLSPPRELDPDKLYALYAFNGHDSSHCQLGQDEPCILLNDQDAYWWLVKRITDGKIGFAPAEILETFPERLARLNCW

T6: Bzz1-1, P38822
T6 sequence (P38822 478-572, looked up): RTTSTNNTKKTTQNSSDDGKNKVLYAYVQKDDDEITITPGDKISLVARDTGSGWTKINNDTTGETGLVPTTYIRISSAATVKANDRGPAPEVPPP

T7: Bzz1-2, P38822
T7 sequence (P38822 568-633, looked up): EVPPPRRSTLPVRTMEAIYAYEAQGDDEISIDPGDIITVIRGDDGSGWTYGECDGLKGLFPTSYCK

T8: Cdc25, P04821
T8 sequence (P04821 50-136, looked up): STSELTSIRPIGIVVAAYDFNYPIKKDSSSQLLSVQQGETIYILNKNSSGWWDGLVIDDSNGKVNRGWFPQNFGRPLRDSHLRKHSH

T9: Cyk3, Q07533
T9 sequence (Q07533 1-83, looked up): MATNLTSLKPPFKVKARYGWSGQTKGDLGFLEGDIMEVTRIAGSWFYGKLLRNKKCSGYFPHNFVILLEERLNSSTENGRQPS

T10: Fus1, P11710
T10 sequence (P11710 432-512, looked up): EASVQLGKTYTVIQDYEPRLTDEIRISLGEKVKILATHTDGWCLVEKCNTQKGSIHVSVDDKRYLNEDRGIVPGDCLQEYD

T11: Hof1, Q05080
T11 sequence (Q05080 590-669, looked up): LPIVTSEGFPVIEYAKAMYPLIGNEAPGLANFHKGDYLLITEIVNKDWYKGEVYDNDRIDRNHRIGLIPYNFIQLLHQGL

T12: Hse1, P38753
T12 sequence (P38753 208-285, looked up): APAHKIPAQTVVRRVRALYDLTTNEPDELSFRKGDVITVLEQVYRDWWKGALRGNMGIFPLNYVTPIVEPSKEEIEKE

T13: Lsb1, P53281
T13 sequence (P53281 45-122, looked up): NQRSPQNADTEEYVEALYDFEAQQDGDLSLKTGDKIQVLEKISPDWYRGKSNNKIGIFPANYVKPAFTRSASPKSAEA

T14: Lsb3, P43603
T14 sequence (P43603 385-451, looked up): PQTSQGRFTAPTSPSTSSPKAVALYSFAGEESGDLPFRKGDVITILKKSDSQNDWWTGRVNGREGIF

T15: Lsb4, P32793
T15 sequence (P32793 402-468, looked up): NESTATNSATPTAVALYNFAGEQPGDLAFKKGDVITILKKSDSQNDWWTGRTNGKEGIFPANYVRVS

T16: Myo5, Q04439
T16 sequence (Q04439 1072-1160, looked up): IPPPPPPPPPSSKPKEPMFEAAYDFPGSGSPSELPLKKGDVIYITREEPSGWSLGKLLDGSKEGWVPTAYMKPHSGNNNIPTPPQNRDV

T17: Nbp2, Q12163
T17 sequence (Q12163 103-180, looked up): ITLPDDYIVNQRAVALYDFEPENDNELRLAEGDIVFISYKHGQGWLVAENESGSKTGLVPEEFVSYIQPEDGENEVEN

T18: Pex13, P80667
T18 sequence (P80667 295-386, looked up): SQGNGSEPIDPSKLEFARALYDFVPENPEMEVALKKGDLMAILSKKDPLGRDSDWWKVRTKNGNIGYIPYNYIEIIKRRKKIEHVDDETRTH

T19: Pin3, Q06449
T19 sequence (Q06449 53-122, looked up): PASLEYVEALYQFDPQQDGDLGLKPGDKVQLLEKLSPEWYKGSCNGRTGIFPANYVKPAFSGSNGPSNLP

T20: Sla1-2, P32790
T20 sequence (P32790 60-140, looked up): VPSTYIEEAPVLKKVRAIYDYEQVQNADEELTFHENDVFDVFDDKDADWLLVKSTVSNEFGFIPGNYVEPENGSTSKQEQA

T21: Sla1-3, P32790
T21 sequence (P32790 344-424, looked up): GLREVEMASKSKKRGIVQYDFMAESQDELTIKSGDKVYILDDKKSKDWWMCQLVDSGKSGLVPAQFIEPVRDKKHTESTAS

B1: unnamed (peptide)
chain: RRSKSLPTTPGIRSG
B2: unnamed (peptide)
chain: KNRKNLPTIPIRLSG
B3: unnamed (peptide)
chain: DHPKGPPPPPPPDEK
B4: unnamed (peptide)
chain: TPRLSLPRLPNKHHW
B5: unnamed (peptide)
chain: QLMKNLPKIPLLNDI
B6: unnamed (peptide)
chain: SRSKPLPLTPNSKYN

Biological target: T1, Abp1, P15891
Assay: SPOT array
Details: median of control spots 935

Row | SPOT intensity | Binder
1 | 229 | B1
2 | 333 | B2
3 | 0 | B3
4 | 37 | B4
5 | 76 | B5
6 | 109 | B6

Biological target: T2, Bbc1, P47068
Assay: SPOT array
Details: median of control spots 796

Row | SPOT intensity | Binder
7 | 19 | B1
8 | 25 | B2
9 | 0 | B3
10 | 2 | B4
11 | 0 | B5
12 | 5 | B6

Biological target: Bem1-1, P29366
Sequence (P29366 55-141): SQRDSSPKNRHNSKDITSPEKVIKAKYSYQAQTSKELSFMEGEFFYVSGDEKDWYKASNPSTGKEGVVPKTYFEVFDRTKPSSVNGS
Assay: SPOT array
Details: median of control spots 4282

Row | SPOT intensity | Binder
13 | 1 | B1
14 | 4 | B2
15 | 8 | B3
16 | 0 | B4
17 | 5 | B5
18 | 0 | B6

Biological target: Bem1-2, P29366
Sequence (P29366 139-227): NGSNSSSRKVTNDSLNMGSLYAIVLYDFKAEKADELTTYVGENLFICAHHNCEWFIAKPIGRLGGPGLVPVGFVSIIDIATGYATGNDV
Assay: SPOT array
Details: median of control spots 4347

Row | SPOT intensity | Binder
19 | 0 | B1
20 | 16 | B2
21 | 0 | B3
22 | 3 | B4
23 | 0 | B5
24 | 1 | B6

Biological target: T3, Boi1, P38041
Assay: SPOT array
Details: median of control spots 1162

Row | SPOT intensity | Binder
25 | 3 | B1
26 | 3 | B2
27 | 0 | B3
28 | 4 | B4
29 | 1 | B5
30 | 2 | B6

Biological target: T4, Boi2, P39969
Assay: SPOT array
Details: median of control spots 1161

Row | SPOT intensity | Binder
31 | 1 | B1
32 | 2 | B2
33 | 0 | B3
34 | 0 | B4
35 | 1 | B5
36 | 0 | B6

Biological target: T5, Bud14, P27637
Assay: SPOT array
Details: median of control spots 956

Row | SPOT intensity | Binder
37 | 20 | B1
38 | 3 | B2
39 | 1 | B3
40 | 9 | B4
41 | 0 | B5
42 | 5 | B6

Biological target: T6, Bzz1-1, P38822
Assay: SPOT array
Details: median of control spots 4446

Row | SPOT intensity | Binder
43 | 0 | B1
44 | 0 | B2
45 | 72 | B3
46 | 0 | B4
47 | 1 | B5
48 | 2 | B6

Biological target: T7, Bzz1-2, P38822
Assay: SPOT array
Details: median of control spots 4538

Row | SPOT intensity | Binder
49 | 1 | B1
50 | 4 | B2
51 | 12 | B3
52 | 1 | B4
53 | 7 | B5
54 | 4 | B6

Biological target: T8, Cdc25, P04821
Assay: SPOT array
Details: median of control spots 969

Row | SPOT intensity | Binder
55 | 17 | B1
56 | 5 | B2
57 | 6 | B3
58 | 10 | B4
59 | 0 | B5
60 | 2 | B6

Biological target: T9, Cyk3, Q07533
Assay: SPOT array
Details: median of control spots 1451

Row | SPOT intensity | Binder
61 | 0 | B1
62 | 1 | B2
63 | 0 | B3
64 | 0 | B4
65 | 0 | B5
66 | 1 | B6

Biological target: T10, Fus1, P11710
Assay: SPOT array
Details: median of control spots 1200

Row | SPOT intensity | Binder
67 | 63 | B1
68 | 24 | B2
69 | 0 | B3
70 | 0 | B4
71 | 0 | B5
72 | 0 | B6

Biological target: GST
Assay: SPOT array
Details: median of control spots 978

Row | SPOT intensity | Binder
73 | 0 | B1
74 | 0 | B2
75 | 0 | B3
76 | 0 | B4
77 | 1 | B5
78 | 0 | B6

Biological target: T11, Hof1, Q05080
Assay: SPOT array
Details: median of control spots 4086

Row | SPOT intensity | Binder
79 | 0 | B1
80 | 26 | B2
81 | 2 | B3
82 | 1600 | B4
83 | 11 | B5
84 | 0 | B6

Biological target: T12, Hse1, P38753
Assay: SPOT array
Details: median of control spots 1727

Row | SPOT intensity | Binder
85 | 5 | B1
86 | 2 | B2
87 | 0 | B3
88 | 30 | B4
89 | 1 | B5
90 | 1 | B6

Biological target: T13, Lsb1, P53281
Assay: SPOT array
Details: median of control spots 388

Row | SPOT intensity | Binder
91 | 8 | B1
92 | 1220 | B2
93 | 0 | B3
94 | 0 | B4
95 | 6 | B5
96 | 0 | B6

Biological target: T14, Lsb3, P43603
Assay: SPOT array
Details: median of control spots 406

Row | SPOT intensity | Binder
97 | 1 | B1
98 | 25 | B2
99 | 0 | B3
100 | 0 | B4
101 | 21 | B5
102 | 0 | B6

Biological target: T15, Lsb4, P32793
Assay: SPOT array
Details: median of control spots 397

Row | SPOT intensity | Binder
103 | 2 | B1
104 | 103 | B2
105 | 0 | B3
106 | 0 | B4
107 | 41 | B5
108 | 2 | B6

Biological target: Myo3, P36006
Assay: SPOT array
Details: median of control spots 468

Row | SPOT intensity | Binder
109 | 12 | B1
110 | 5 | B2
111 | 431 | B3
112 | 0 | B4
113 | 72 | B5
114 | 0 | B6

Biological target: T16, Myo5, Q04439
Assay: SPOT array
Details: median of control spots 471

Row | SPOT intensity | Binder
115 | 0 | B1
116 | 1 | B2
117 | 298 | B3
118 | 0 | B4
119 | 68 | B5
120 | 0 | B6

Biological target: T17, Nbp2, Q12163
Assay: SPOT array
Details: median of control spots 357

Row | SPOT intensity | Binder
121 | 49 | B1
122 | 47 | B2
123 | 1 | B3
124 | 0 | B4
125 | 10 | B5
126 | 0 | B6

Biological target: T18, Pex13, P80667
Assay: SPOT array
Details: median of control spots 1341

Row | SPOT intensity | Binder
127 | 8 | B1
128 | 13 | B2
129 | 0 | B3
130 | 45 | B4
131 | 162 | B5
132 | 21 | B6

Biological target: T19, Pin3, Q06449
Assay: SPOT array
Details: median of control spots 2171

Row | SPOT intensity | Binder
133 | 5 | B1
134 | 15 | B2
135 | 6 | B3
136 | 7 | B4
137 | 78 | B5
138 | 19 | B6

Biological target: Rvs167, P39743
Sequence (P39743 419-482): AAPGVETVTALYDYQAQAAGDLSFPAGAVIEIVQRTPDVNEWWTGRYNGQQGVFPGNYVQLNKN
Assay: SPOT array
Details: median of control spots 2707

Row | SPOT intensity | Binder
139 | 0 | B1
140 | 86 | B2
141 | 0 | B3
142 | 2 | B4
143 | 0 | B5
144 | 1 | B6

Biological target: Sho1, P40073
Sequence (P40073 287-367): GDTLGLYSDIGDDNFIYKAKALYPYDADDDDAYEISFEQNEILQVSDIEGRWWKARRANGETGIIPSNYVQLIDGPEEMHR
Assay: SPOT array
Details: median of control spots 1148

Row | SPOT intensity | Binder
145 | 1350 | B1
146 | 1660 | B2
147 | 0 | B3
148 | 35 | B4
149 | 861 | B5
150 | 1030 | B6

Biological target: T20, Sla1-2, P32790
Assay: SPOT array
Details: median of control spots 712

Row | SPOT intensity | Binder
151 | 0 | B1
152 | 0 | B2
153 | 0 | B3
154 | 0 | B4
155 | 5 | B5
156 | 3 | B6

Biological target: T21, Sla1-3, P32790
Assay: SPOT array
Details: median of control spots 5475

Row | SPOT intensity | Binder
157 | 26 | B1
158 | 55 | B2
159 | 12 | B3
160 | 0 | B4
161 | 2 | B5
162 | 7 | B6
